# Source: publication PMC3102279
# B1: Mps1 (Homo sapiens) (protein)
# chain: MESEDLSGRELTIDSIMNKVRDIKNKFKNEDLTDELSLNKISADTTDNSGTVNQIMMMANNPEDWLSLLLKLEKNSVPLSDALLNKLIGRYSQAIEALPPDKYGQNESFARIQVRFAELKAIQEPDDARDYFQMARANCKKFAFVHISFAQFELSQGNVKKSKQLLQKAVERGAVPLEMLEIALRNLNLQKKQLLSEEEKKNLSASTVLTAQESFSGSLGHLQNRNNSCDSRGQTTKARFLYGENMPPQDAEIGYRNSLRQTNKTKQSCPFGRVPVNLLNSPDCDVKTDDSVVPCFMKRQTSRSECRDLVVPGSKPSGNDSCELRNLKSVQNSHFKEPLVSDEKSSELIITDSITLKNKTESSLLAKLEETKEYQEPEVPESNQKQWQSKRKSECINQNPAASSNHWQIPELARKVNTEQKHTTFEQPVFSVSKQSPPISTSKWFDPKSICKTPSSNTLDDYMSCFRTPVVKNDFPPACQLSTPYGQPACFQQQQHQILATPLQNLQVLASSSANECISVKGRIYSILKQIGSGGSSKVFQVLNEKKQIYAIKYVNLEEADNQTLDSYRNEIAYLNKLQQHSDKIIRLYDYEITDQYIYMVMECGNIDLNSWLKKKKSIDPWERKSYWKNMLEAVHTIHQHGIVHSDLKPANFLIVDGMLKLIDFGIANQMQPDTTSVVKDSQVGTVNYMPPEAIKDMSSSRENGKSKSKISPKSDVWSLGCILYYMTYGKTPFQQIINQISKLHAIIDPNHEIEFPDIPEKDLQDVLKCCLKRDPKQRISIPELLAHPYVQIQTHPVNQMAKGTTEEMKYVLGQLVGLNSPNSILKAAKTLYEHYSGGESHNSSSSKTFEKKRGKK
# B2: Aurora B (Homo sapiens) (protein)
# chain: SNVQPTAAPGQKVMENSSGTPDILTRHFTIDDFEIGRPLGKGKFGNVYLAREKKSHFIVALKVLFKSQIEKEGVEHQLRREIEIQAHLHHPNILRLYNYFYDRRRIYLILEYAPRGELYKELQKSCTFDEQRTATIMEELADALMYCHGKKVIHRDIKPENLLLGLKGELKIADFGWSVHAPSLRRKTMCGTLDYLPPEMIEGRMHNEKVDLWCIGVLCYELLVGNPPFESASHNETYRRIVKVDLKFPASVPMGAQDLISKLLRHNPSERLPLAQVSAHPWVRANSRRVLPPSALQSVA
# Experiments:
# purified protein [1] = substrate: Nc1ncnc2c1ncn2[C@@H]1O[C@H](COP(=O)(O)OP(=O)(O)OP(=O)(O)O)[C@@H](O)[C@H]1O; experiment: purified protein; format: biochemical, Homo sapiens; conditions: Mg2+
# purified protein [2] = substrate: Nc1ncnc2c1ncn2[C@@H]1O[C@H](COP(=O)(O)OP(=O)(O)OP(=O)(O)O)[C@@H](O)[C@H]1O; experiment: purified protein; conditions: Mg2+
Protein,Km (purified protein [1]) [µM],Km (purified protein [2]) [µM]
B1,4.9,–
B2,–,16.5
